Laboratory results from PMC6140609 (Oncoimmunology, 2018).

Key:
[1] = target: Human OX40-Fc (human) (UniProt P43489); assay: ELISA
[2] = target: the molecule itself; assay: SEC
[3] = target: Human CD40-Fc (human, UniProt P25942 21-193); assay: ELISA
Chain of Human CD40-Fc (P25942 21-193): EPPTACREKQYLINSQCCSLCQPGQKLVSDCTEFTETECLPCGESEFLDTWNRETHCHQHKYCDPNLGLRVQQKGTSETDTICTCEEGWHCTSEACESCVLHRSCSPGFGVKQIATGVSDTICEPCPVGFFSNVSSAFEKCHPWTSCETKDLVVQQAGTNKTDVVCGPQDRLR

Chain of Human OX40-Fc (human) (P43489 29-214): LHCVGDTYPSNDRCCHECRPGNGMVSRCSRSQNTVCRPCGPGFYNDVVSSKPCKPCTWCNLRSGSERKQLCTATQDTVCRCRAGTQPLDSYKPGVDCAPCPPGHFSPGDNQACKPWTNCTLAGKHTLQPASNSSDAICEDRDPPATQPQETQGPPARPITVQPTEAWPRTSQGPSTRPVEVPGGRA

Molecule | stoichiometry N [2] | also measured
scOX40L-scCD27L (from UniProt P23510 51-183; P23510 51-183; P23510 51-183; P32970 52-193; P32970 52-193; P32970 52-193) (ligand) | – | EC50 [1]: 60.2 nM
scCD27L-scOX40L (from UniProt P32970 52-193; P32970 52-193; P32970 52-193; P23510 51-183; P23510 51-183; P23510 51-183) (ligand) | – | EC50 [1]: 14.3 nM
CD40L-OX40L (ligand, human) GDQNPQIAAHVISEASSKTTSVLQWAEKGYYTMSNNLVTLENGKQLTVKRQGLYYIYAQVTFCSNREASSQAPFIASLCLKSPGRFERILLRAANTHSSAKPCGQQSIHLGGVFELQPGASVFVNVTDPSQVSHGTGFTSFGLLKLGGGGSGGGGSGGGGSQVSHRYPRIQSIKVQFTEYKKEKGFILTSQKEDEIMKVQNNSVIINCDGFYLISLKGYFSQEVNISLHYQKDEEPLFQLKKVRSVNSLMVASLTYKDKVYLNVTTDNTSLDDFHVNGGELILIHQNPGEFCVL | 3 | –
OX40L-CD40L (ligand, human) QVSHRYPRIQSIKVQFTEYKKEKGFILTSQKEDEIMKVQNNSVIINCDGFYLISLKGYFSQEVNISLHYQKDEEPLFQLKKVRSVNSLMVASLTYKDKVYLNVTTDNTSLDDFHVNGGELILIHQNPGEFCVLGGGGSGGGGSGGGGSGDQNPQIAAHVISEASSKTTSVLQWAEKGYYTMSNNLVTLENGKQLTVKRQGLYYIYAQVTFCSNREASSQAPFIASLCLKSPGRFERILLRAANTHSSAKPCGQQSIHLGGVFELQPGASVFVNVTDPSQVSHGTGFTSFGLLKL | 3 | –
CD27L-OX40L (ligand, human) SLGWDVAELQLNHTGPQQDPRLYWQGGPALGRSFLHGPELDKGQLRIHRDGIYMVHIQVTLAICSSTTASRHHPTTLAVGICSPASRSISLLRLSFHQGCTIASQRLTPLARGDTLCTNLTGTLLPSRNTDETFFGVQWVRPGGGGSGGGGSGGGGSQVSHRYPRIQSIKVQFTEYKKEKGFILTSQKEDEIMKVQNNSVIINCDGFYLISLKGYFSQEVNISLHYQKDEEPLFQLKKVRSVNSLMVASLTYKDKVYLNVTTDNTSLDDFHVNGGELILIHQNPGEFCVL | 3 | –
OX40L-CD27L (ligand, human) QVSHRYPRIQSIKVQFTEYKKEKGFILTSQKEDEIMKVQNNSVIINCDGFYLISLKGYFSQEVNISLHYQKDEEPLFQLKKVRSVNSLMVASLTYKDKVYLNVTTDNTSLDDFHVNGGELILIHQNPGEFCVLGGGGSGGGGSGGGGSSLGWDVAELQLNHTGPQQDPRLYWQGGPALGRSFLHGPELDKGQLRIHRDGIYMVHIQVTLAICSSTTASRHHPTTLAVGICSPASRSISLLRLSFHQGCTIASQRLTPLARGDTLCTNLTGTLLPSRNTDETFFGVQWVRP | 3 | –
CD27L-CD40L (ligand, human) SLGWDVAELQLNHTGPQQDPRLYWQGGPALGRSFLHGPELDKGQLRIHRDGIYMVHIQVTLAICSSTTASRHHPTTLAVGICSPASRSISLLRLSFHQGCTIASQRLTPLARGDTLCTNLTGTLLPSRNTDETFFGVQWVRPGGGGSGGGGSGGGGSGDQNPQIAAHVISEASSKTTSVLQWAEKGYYTMSNNLVTLENGKQLTVKRQGLYYIYAQVTFCSNREASSQAPFIASLCLKSPGRFERILLRAANTHSSAKPCGQQSIHLGGVFELQPGASVFVNVTDPSQVSHGTGFTSFGLLKL | 3 | –
CD40L-CD27L (ligand, human) GDQNPQIAAHVISEASSKTTSVLQWAEKGYYTMSNNLVTLENGKQLTVKRQGLYYIYAQVTFCSNREASSQAPFIASLCLKSPGRFERILLRAANTHSSAKPCGQQSIHLGGVFELQPGASVFVNVTDPSQVSHGTGFTSFGLLKLGGGGSGGGGSGGGGSSLGWDVAELQLNHTGPQQDPRLYWQGGPALGRSFLHGPELDKGQLRIHRDGIYMVHIQVTLAICSSTTASRHHPTTLAVGICSPASRSISLLRLSFHQGCTIASQRLTPLARGDTLCTNLTGTLLPSRNTDETFFGVQWVRP | – | EC50 [3]: 12.3 nM
OX40L-4-1BBL (ligand, human) QVSHRYPRIQSIKVQFTEYKKEKGFILTSQKEDEIMKVQNNSVIINCDGFYLISLKGYFSQEVNISLHYQKDEEPLFQLKKVRSVNSLMVASLTYKDKVYLNVTTDNTSLDDFHVNGGELILIHQNPGEFCVLGGGGSGGGGSGGGGSGGGGSREGPELSPDDPAGLLDLRQGMFAQLVAQNVLLIDGPLSWYSDPGLAGVSLTGGLSYKEDTKELVVAKAGVYYVFFQLELRRVVAGEGSGSVSLALHLQPLRSAAGAAALALTVDLPPASSEARNSAFGFQGRLLHLSAGQRLGVHLHTEARARHAWQLTQGATVLGLFRVTPEIPAGLPSPRSE | 3 | –
CD27L-4-1BBL (ligand, human) SLGWDVAELQLNHTGPQQDPRLYWQGGPALGRSFLHGPELDKGQLRIHRDGIYMVHIQVTLAICSSTTASRHHPTTLAVGICSPASRSISLLRLSFHQGCTIASQRLTPLARGDTLCTNLTGTLLPSRNTDETFFGVQWVRPGGGGSGGGGSGGGGSGGGGSREGPELSPDDPAGLLDLRQGMFAQLVAQNVLLIDGPLSWYSDPGLAGVSLTGGLSYKEDTKELVVAKAGVYYVFFQLELRRVVAGEGSGSVSLALHLQPLRSAAGAAALALTVDLPPASSEARNSAFGFQGRLLHLSAGQRLGVHLHTEARARHAWQLTQGATVLGLFRVTPEIPAGLPSPRSE | 3 | –
